Measured values published in US20120316071A1 (published 2012).
Blank lines part the entries; values can stand above or below the binder they belong to.

Legend:
[1] = target: T1, rHuman IGF-1 sR, CF (R&D Systems Cat#391-GR) (human, UniProt P08069 31-932); assay: Multispot ECL (MSD), antigen spotted on plate, Fab 250 nM; blank spot 590
T1 construct: Bought recombinant soluble receptor; also called insulin-like growth factor-1 soluble receptor

[2] = target: T2, rHuman Erythropoietin R/Fc Chimera, CF (R&D Systems Cat#963-ER) (human, UniProt P19235 25-250); assay: as above
T2 construct: Bought recombinant protein; also called EPO R/Fc; Epo R; Fc part of the bought chimera not given
T2 sequence (looked up): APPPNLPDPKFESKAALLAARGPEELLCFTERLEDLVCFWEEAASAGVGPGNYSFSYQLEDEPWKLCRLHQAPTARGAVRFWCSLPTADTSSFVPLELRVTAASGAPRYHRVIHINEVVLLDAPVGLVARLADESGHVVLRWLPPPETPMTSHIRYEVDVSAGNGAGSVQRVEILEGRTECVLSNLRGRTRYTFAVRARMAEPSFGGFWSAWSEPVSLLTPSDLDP

[3] = target: T3, rHuman Notch-1/Fc Chimera, CF (R&D Systems Cat#3647-TK) (human, UniProt P46531 19-526); assay: as above
T3 construct: Bought recombinant protein; Fc part of the bought chimera not given

[4] = target: T4, Recombinant Human DLL4 (R&D Systems Cat#1506-D4/CF) (human, UniProt Q9NR61 27-524); assay: as above
T4 construct: Bought recombinant protein; also called rHuman DLL4; delta-like protein 4

[5] = target: T1, rHuman IGF-1 sR, CF (R&D Systems …); assay: Multispot ECL (MSD), antigen spotted on plate, Fab 1000 nM; blank spot 1133
[6] = target: T2, rHuman Erythropoietin R/Fc Chimera, CF …; assay: as above
[7] = target: T3, rHuman Notch-1/Fc Chimera, CF (R&D …); assay: as above
[8] = target: T4, Recombinant Human DLL4 (R&D Systems …); assay: as above
[9] = target: T5, rHuman Notch-1/Fc Chimera, CF (R&D Systems Cat#3647-TK) (human, UniProt P46531 19-526); assay: MSD Multispot ECL, antigen spotted on plate, Fab at 120 nM; blank spot 363
T5 construct: Bought Fc chimera; Fc part of the bought chimera not given

[10] = target: T6, rHuman CD44/Fc Chimera, CF (R&D Systems Cat#3660-CD) (human, UniProt P16070 21-220); assay: as above
T6 construct: Bought Fc chimera; Fc part of the bought chimera not given

[11] = target: T7, Recombinant Human DLL4 (R&D Systems Cat#1506-D4/CF) (human, UniProt Q9NR61 27-524); assay: as above
T7 construct: Bought recombinant protein; also called rHuman DLL4; delta-like protein 4

[12] = target: T8, rHuman Erythropoietin R/Fc Chimera, CF (R&D Systems Cat#963-ER) (human, UniProt P19235 25-250); assay: as above
T8 construct: Bought Fc chimera; also called EPO R/Fc; Epo R; Fc part of the bought chimera not given
T8 sequence (looked up): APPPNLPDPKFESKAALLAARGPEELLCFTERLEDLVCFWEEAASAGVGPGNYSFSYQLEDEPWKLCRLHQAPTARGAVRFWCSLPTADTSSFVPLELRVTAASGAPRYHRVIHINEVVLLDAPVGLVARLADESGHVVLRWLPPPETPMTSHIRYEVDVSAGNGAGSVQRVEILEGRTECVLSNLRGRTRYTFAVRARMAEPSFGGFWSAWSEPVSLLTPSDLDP

[13] = target: T9, rHuman P-Cadherin/Fc Chimera, CF (R&D Systems Cat#861-PC) (human, UniProt P22223 108-654); assay: as above
T9 construct: Bought Fc chimera; Fc part of the bought chimera not given

[14] = target: T10, rHuman P-Cadherin/Fc Chimera, CF (R&D Systems Cat#861-PC) (human, UniProt P22223 108-654); assay: MSD multispot ECL, antigen spotted on plate; Fab 0.03188 uM; blank spot 536
T10 construct: Bought recombinant protein; Fc part of the bought chimera not given

[15] = target: T11, Recombinant Human DLL4 (R&D Systems Cat#1506-D4/CF) (human, UniProt Q9NR61 27-524); assay: as above
T11 construct: Bought recombinant protein; also called delta-like protein 4; rHuman DLL4

[16] = target: T12, rHuman Erythropoietin R/Fc Chimera, CF (R&D Systems Cat#963-ER) (human, UniProt P19235 25-250); assay: as above
T12 construct: Bought recombinant protein; also called EPO R/Fc; Epo R; Fc part of the bought chimera not given
T12 sequence (looked up): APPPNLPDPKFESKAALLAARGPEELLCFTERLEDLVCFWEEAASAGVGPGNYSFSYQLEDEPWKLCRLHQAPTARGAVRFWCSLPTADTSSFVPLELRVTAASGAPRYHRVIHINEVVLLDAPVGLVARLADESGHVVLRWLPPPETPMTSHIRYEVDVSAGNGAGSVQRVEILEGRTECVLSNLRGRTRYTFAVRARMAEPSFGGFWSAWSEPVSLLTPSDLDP

[17] = target: T13, rHuman ErbB2/Fc Chimera, CF (R&D Systems Cat#1129-ER) (human, UniProt P04626 23-652); assay: as above
T13 construct: Bought recombinant protein; also called human epidermal growth factor 2 receptor; Fc part of the bought chimera not given

[18] = target: T14, rHuman IGF-1 sR, CF (R&D Systems Cat#391-GR) (human, UniProt P08069 31-932); assay: as above
T14 construct: Bought recombinant soluble receptor; also called insulin-like growth factor-1 soluble receptor

[19] = target: T15, rHuman EGF R/Fc Chimera, CF (R&D Systems Cat#344-ER) (human, UniProt P00533 25-645); assay: as above
T15 construct: Bought recombinant protein; also called epidermal growth factor receptor; Fc part of the bought chimera not given

[20] = target: T16, rHuman CD44/Fc Chimera, CF (R&D Systems Cat#3660-CD) (human, UniProt P16070 21-220); assay: as above
T16 construct: Bought recombinant protein; Fc part of the bought chimera not given

ECL signal [1]: 993 | ECL signal [2]: 8540 | ECL signal [3]: 1240 | ECL signal [4]: 1560 | ECL signal [5]: 1670 | ECL signal [6]: 8590 | ECL signal [7]: 2270 | ECL signal [8]: 2780
B1: Fab VH1-46_IGHD6-13*01_IGHJ4*01 & B3_IGKJ1*01 (Fab, V domains shown)
VH: QVQLVQSGAEVKKPGASVKVSCKASGYTFTSYYMHWVRQAPGQGLEWMGIINPSGGSTSYAQKFQGRVTMTRDTSTSTVYMELSSLRSEDTAVYYCAREGYSSSWYDYFDYWGQGTLVTVSS
VL: not shown
notes: Germline Fab made in E. coli; VH was cloned into Plasmid A (CH1, His6 and Flag tags) and the kappa VL into Plasmid C (kappa CL)

ECL signal [9]: 472 | ECL signal [10]: 442 | ECL signal [11]: 938 | ECL signal [12]: 431 | ECL signal [13]: 450
B2: Fab VH6-1_IGHD3-3*01_IGHJ4*01 & V4-3_IGLJ4*01 (Fab, V domains shown)
VH: QVQLQQSGPGLVKPSQTLSLTCAISGDSVSSNSAAWNWIRQSPSRGLEWLGRTYYRSKWYNDYAVSVKSRITINPDTSKNQFSLQLNSVTPEDTAVYYCAREYYDFWSGYYTDYFDYWGQGTLVTVSS
VL: QPVLTQPTSLSASPGASARLTCTLRSGINLGSYRIFWYQQKPESPPRYLLSYYSDSSKHQGSGVPSRFSGSKDASSNAGILVISGLQSEDEADYYCMIWHSSASFVFGGGTQLIIL
notes: Tested as a purified germline Fab made in E. coli; The VH was cloned into plasmid A (CH1 constant region, His6 and Flag tags) and the lambda VL into plasmid E (lambda CL)

ECL signal [14]: 775 | ECL signal [15]: 1280 | ECL signal [16]: 789 | ECL signal [17]: 584 | ECL signal [18]: 765 | ECL signal [19]: 694 | ECL signal [20]: 653
B3: Fab VH4-34_IGHD7-27*01_IGHJ4*01 & L5_IGKJ1*01 (Fab, V domains shown)
VH: QVQLQQWGAGLLKPSETLSLTCAVYGGSFSGYYWSWIRQPPGKGLEWIGEINHSGSTNYNPSLKSRVTISVDTSKNQFSLKLSSVTAADTAVYYCARANWGDYFDYWGQGTLVTVSS
VL: DIQMTQSPSSVSASVGDRVTITCRASQGISSWLAWYQQKPGKAPKLLIYAASSLQSGVPSRFSGSGSGTDFTLTISSLQPEDFATYYCQQANSFPPWTFGQGTKVEIKR
notes: Germline library Fab expressed in E. coli; VH was cloned into Plasmid A, which adds CH1 with His6 and Flag tags
